Results on 17 sequences are retold here after a protein production outcome set (Wang et al. 2014).

The series can be described thus: label from the status in PepcDB records.
For “MKKILVGIPNYNNAAYIVDTIESVLKQSYSGVDVVVFDNASTDDSVEIIENTFLNNPNVLLKKSASNVGPTMNHNRCLEYAIDNEYDYLKVLSSDDVLLPNIIQEQFELLESEPRGAFATCNMIVTDDKLTKIKDHDFLGSNTDGNAVIKKCASHSANYIGGPSNGLLRVSCIGATRFSPEYKWLSDLKFYCDLLANRPFINTGTNGFFYRRHDNTDSSHVSKIKNLQRKESIRFSGEYGGNFLTKIKIYLRDIKSRLLLEHHHHHH”, the protein production result is reported as “failed”.

Take “MKKILVIRNDKIGDFMVCFPAFAMLKQSMPNAEITALVPSYTASLAELCPSIDNVIIDTPNKKDKTEFNRVLQAVKNAQFDAVICFVSDWYNAKLTWKSGIKHRLAPATKVFQFLYNQRLEHHHHHH”: the protein production result is reported as “failed”.

Turning to “MKKKALLPLFLGIMIFLAGCDYSTPEKQDGFFFNTFVQPMKHLLQWLGNDVFHNNFGLAIIVLVLFIRLILLPFMLSNYKNSHMMREKMKVAKPEVDGIQEKVKRARTQEEKMAANQELMEVYKKYDMNPMKSMLGCLPILIQMPIIMGLYFVLKDKLVNGLSEHPHFLWFNLTKPDIWITVIAGVLYFIQAVVSSKTMPQEQRQMGYMMMVISPIMIIWISLQASSALGLYWSVSALFLVIQTHFANIYYSKLAKKEVQPFIEKYEREHNPYSKKKGKNTQVVSKKNKK”, the protein production result is listed as “failed”.

Take “MKKKIIIAIVASAITMTHFVGNTYADSKTEVSVTAPYNTNQIAKWLEAHAKPLKTTNPTASLNDLKPLKNMVGSASIVGLGEATHGAHEVFTMKHRIVKYLVSEKGFTNLVLEEGWDRALELDRYVLTGKGNPSQHLTPVFKTKEMLDLLDWIRQYNANPKHKSKVRVIGMDIQSVNENVYNNIIEYIKANNSKLLPRVEEKIKGLIPVTKDMNTFESLTKEEKEKYVLDAKQISALLEENKSYLNGKSKEFAWIKQNARIIEQFTTMLATPPDKPADFYLKHDIAMYENAKWTEEHLGKTIVWGHNGHVSKTNMLSFIYPKVAGQHLAEYYGKRYVSIGTSVYEGQYNVKNSDGEFGPYGTLKSDDPNSYNYIFGQVKKDQFFIDLRKANGVTKTWLNEQHPIFAGITTEGPDIPKTVDISLGKAFDILVQIQKVSPSQVHQLEHHHHHH”: the protein production entry was “not failed”.

On to “MKKKLFSPIWLLPIVALALGAWLGIKSIKESGVEIQIHFPSATGIDVGKTLVKYQGLTVGKVKDIGIDDDLKGVNVKVMMDYRAKPFLNKETLFWLVTPKASITGVEGLDALFSGNYIAIQPGKGNAATFFEAERQPPPMQIGSEGVMIELTADKLGSLDVGSPVFFRQIPVGSVVSYRLDGNARVIISAFIQEQYARLVKKNSHFWNVSGVKVDASLAGIKVNTESLASILAGGVSFSSDEKAAAAQNGDSFALYDSETSALGGVEVSLTMNDGNGIDKGTRIVYRGISVGSIQSKNLTTTGVTAIAKFEPEYANLLTSDGRFWLEGADISLSGIKNPERLLTGSVINFLPGTNANTALPSSFALQSSAPDLLQAKKRLLTITSAENMGLTAGAEVRYKQLPIGQVLAVKLTKDLSAVEYQLELQPEFASLVRSDSYFIPESALSVDASIEGVSVKTRDLATLTKGAVSLIPGSNNTPVAANARLSLFSSVEEAKQFFERQQRLYFTLTSQDGADVSQGSPIYYKKMQIGRVESVNWQSKTEDFAIKIAIDKQFQPLMQKPKVFWRNSALDVSASLAGIDVAVAPLQGALKGSISLGLLENPLADPTASLKLYENKQLALAQAQAIRLTLSASAKLAAKAAIRYQGHQVGEVTQVKLNADLNTLSATAYLYGEYADHFSSSDAEYHMVEAQISLAGIKAPETLITGPYIGVLPGKSKQKATQFQAKLVESSYANVAEDALKFTLEDSNLGSMKVGTPIFFRGLKVGQIDGYSLSSQGNSVLMQAHIEPQYRHLVNKTSQFWDASGIKVDVGIFSGAQIEAGSLETLLAGGINVATKETTQANNRLSQGAVITLQHKAQTEWQEWAPAQ”, for which the protein production result is “failed”.

As for “MKKKLFYYLFAVLCTATLFTSCSDDDDEVKYPIDTELAGGYVGNLSVNVDGNQMGTTENQKITISQSNKETNQIALSLKNFTFLVNVGDIEVDPCTVKAIDGGYAFEGQQNLDLVQPLGNCPVSISGTVKGSNINIEIGVKVGAPLNQNVKATFVGRKLTGSESSEAKIISFILDDDIVTEQPIINEEEGIVTFKVSDAAVDDDLSGMIPTIVVSSKAKITPASGVAQDFSNGKKVEYTVTAEDGTTKKYSVFIAGSSDYYSFETWKSLNDGAFEEPDGGWATSNTGVWFIKTVYPDVYNGDYPVVKSEDAKDGAVGVKLITLDTKGQAGADWGFIKIPAIPKVTSGSLFLGTFETDIQNTLNSTKFGNPYYSKPISVQFSYKYTPGAVYYTCPDPVKAEAVTEDPNTTDECSVTAVIYEVPYWETVDPDDANNKAYDKRLTGANLYTNTDQVIAMATFSSGVQEDYKDITLTLNYEKDYDPTKKYRFAIVFSSSKNGDKFSGAPGSTLIVDNVKVVAEK”, the protein production result is “failed”.

With “MKKKSFSIVIAGGGSTFTPGIVLMLLDHLEEFPIRKLKLYDNDKERQDRIAGACDVFIREKAPDIEFAATTDPEEAFTDVDFVMAHIRVGKYAMRALDEQIPLKYGVVGQETCGPGGIAYGMRSIGGVLEILDYMEKYSPDAWMLNYSNPAAIVAEATRRLRPNSKILNICDMPVGIEDRMAQILGLSSRKEMKVRYYGLNHFGWWTSIQDQEGNDLMPKLKEHVSQYGYIPKTEAEAVEASWNDTFAKARDVQAADPDTLPNTYLQYYLFPDDMVKKSNPNHTRANEVMEGREAFIFSQCDMITREQSSENSEIKIDDHASYIVDLARAIAYNTGERMLLIVENNGAIANFDPTAMVEVPCIVGSNGPEPITVGTIPQFQKGLMEQQVSVEKLTVEAWAEKSFQKLWQALILSKTVPNARVARLILEDLVEANKDFWPELDQSPTRIS”, the protein production entry is “not failed”.

As for “MKKKYTIFAISMAVALVLGGEVQSINDSVEAQELQHTVKNVKQTEDFNPTKYANEIENFVKQQNPVSIKSLFSTIALKEKADFEKYGEANAAQVKMLWGSYVFFDFGFVKDSKIIEAIKNNPSVYAKFKKTVNINGTGAFLPGTGSPESISIKNNEDGSNIDSYAYYTPHNPDITKNADKTVVMHGGFRGGYEAGNDTPEIRTFYDKGYNILCVDNRATSLSGGDYVTFGQYESDDVQAWINHYLKDKPDQKIVLYGGSMGASTMMSVLAKNYSSNIKGIIENCGFANIRNELGYVYTMAAIGKNELKDLTGTDFAEDFSVTPMNLQKMMETINNYYIKPKANVDIDGNLPAQGITNAIMPKLFIHGESDLVVPFKDNGQYLATLGDTNNNYKFFVPKAGHGEAQTIDGNGYDKAISDYLNLIFK”, the protein production entry was “failed”.

“MKKLKIVMTGGGSAGHVTPNLALVPKLKELGYEIEYIGTKDGIERSIIEKENIKYNCISSGKLRRYIDIKNFSDPFKVILGIFQSVSILRKKKPNIVFSKGGFVSVPVVIAAHFCRIPVIAHESDITPGLANRIAVPYCTKVCATFPESLNNIKGNKGILTGTPIRDELFKGSKIKGLEICGFTGEKPVLMIIGGSLGSKIIN”: the protein production entry is given as “failed”.

In the case of “MKKLNIALLGLGTVGSGVVKIIEENRQQIQDTLNKDIVIKHILVRDKSKKRPLNISQYHLTEDVNEILNDDSLDIIVEVMGGIEPTVDWLRTALKNKKHVITANKDLLAVHLKLLEDLAEENGVALKFEASVAGGIPIVNAINNGLNANNISKFMGILNGTSNFILSKMTKEQTTFEEALDEAKRLGFAEADPTDDVEGVDAARKVVITSYLSFNQVIKLNDVKRRGISGVTLTDINVADQLGYKIKLIGKGIYENGKVNASVEPTLIDKKHQLAAVEDEYNAIYVIGDAVGDTMFYGKGAGSLATGSAVVSDLLNVALFFESDLHTLPPHFELKTDKTREMMDSDAEINIKEKSNFFVVVNHVKGSIENFENELKAILPFHRSLRVANYDNQSYAAVIVGLESSPEELITKHGYEVDKVYPVEGV”, the protein production entry is “failed”.

Take “MKKLTVYLATTNPHKVEEIKMIAPEWMEILPSPEKIEVVEDGETFLENSVKKAVVYGKKLKHPVMADDSGLVIYSLGGFPGVMSARFMEEHSYKEKMRTILKMLEGKDRRAAFVCSATFFDPVENTLISVEDRVEGRIANEIRGTGGFGYDPFFIPDGYDKTFGEIPHLKEKISHRSKAFRKLFSVLEKILESENR”: the protein production entry is “not failed”.

For “MKKNDLSALQENCFCFCDEEISREAPFQVPIDFPEGFKVDTAEASAAVTWSTDNLSCISEPCLIQTGPEPEDIGVRYAVRVQGTITLLVSVSPVRNQYGQGDGAVSVIHTEEIDQVVYYAAQSGRCPDFSQITVEDLLIVPPFYGSPLTVAGTLVLPPSPDPQSYVFTANTGDSTVSVIDADLNTVVKTIPFSDVPTNLGVTFDKAFTYVLHGNTNLVSVIDNKTLTIINTITVGGGPRKIEFDPTDEFAYVMAAGSIYVINTASQSVIDVIPIPGALDFALDPNGQYVYTANGSSWSVDKYDVNTGQLVESIIDTFEFPSLITTPYAGNFAYVLNGELWPKGVTEISLSPLSRGGDFSRLFETLRTIVFSLDSTRAYFLEPYSEPFLINNLYVVNTARQRIIANVSLPGAFDLAVTPDKQYIYAAQPNDNAVTVYRTSDYTAVTVIPVGAGPSAIAMLEHHHHHH”, the protein production result is “failed”.

On to “MKKNILFIQGGGEGGYEADKHLVASLQQALGKDYAIQYPELSSDETAPDFGWPQQIGTLLSKTDDEIILAAHSLGASMLLKYLSEYVVKNKKIAGVFLLAAPFWEGKEEWKTGLKLKEHFSDTLPKDVPFFFYQCRDDEEVPFSHLEQYRKKLSRAAFREISSGGHTFHTDLSVLATDISAL”, for which the protein production entry is on record as “failed”.

With “MKKNNAISNFYRILSIVLEIFIVAFSIYLAYMVRFRFRIIPPKFNYAPFERSLPFTIIVYMVFMYIFGLVDILKKSLWEIVYSIFLTVIMLFVFTMAITFSLRGFSYPRLVILLSSVFQFFLLSIFKCLWWKLERKIYGTKNTVIIGQNGESIAKKILLKHDDLYSISSIIKNYTEDKKSIVEKADIVLISDDLDENTKSTIIKESMYMNKNIFIVPSVTDIAFYKANFEQIDDVPILKVDTLELSAEQKTVKRLLDIVVAIIATVVFSPFLIILPIIIKCTDGGSPFYFQERVTNGGKKFKLIKFRSMIVNAEKHSGPVLVTENDSRITKIGKIMRATRLDEIPQLFNILKGDMSIVGPRPERPFYVEKFEKEIPDYKYRTFVKAGLTGLAQVLGKYNTTPEDKIKYDIMYIKNYSILLDIKLIIQTVKIMFMKESTEAVKDDVELEEILKKKNIKIKIY”, the protein production result was “failed”.

For the sequence “MKKPVLETWLERGLFASRWLMAPFYVGLVVALAALMVVFFQELFQELPRVPSMTPESAILMALTLIDLSLAANLMVIVILSGYENFVSKIDTASHEDRPEWMGTVDFSGLKMKLIASIVAISAIALLKAFLKLTEPGQTVDQVRLFWLVMVHLSFVVSGVLLAVMDWLNAKVAKS”, the protein production result is on record as “failed”.

Take “MKKQEKGNEVVTFEENPSTYVHHHTKKASMVLSEQEIEVILQSNKETYNEKLEKNTKENAEKVGIEEGNGSSSKITPCIFYTSDEKARLRWSSDLHDCFVNAVEKLGGPNKATPKSVKEAMEVEGIALHHVKSHLQKFRLGKCNIRGGTNQYVRQSQSMPHKSQQQLQLNNDCVNHDSYCNATFLSVTVPPTIDSLHQDTLNNTILFPTTLQAIPTSVSHNTYMSSYPSYNTVEVVKAQLNALQDSSTSQTQETFSRETNLSSIVTRDEADPVDKYIDWNKVGETDIEHDSVEVLEALGLK”: the protein production entry is reported as “failed”.

Regarding “MKKQLIILTTLSTCIFLSACNDNNDSGSYVSSPSIPENNIQNPVVRMDAYTSTDMSLVANESLLMTYKMLGINNKEVQATALVFTPKGVPPVGGWPIVAWAHGTTGVADVCAPSRNVMDENVKTMITQLLAQGYVVVAPDYEGLGEPSGKEIHPFLNVKSEAYSITDAVVAAKSYLGAKAATRWVAVGHSQGGQAALGAAQYASRAKLTYKGTIAVAPASNLDLILNAGELSAANQPVAVQIPTYTNLDTYTALITAGLRNPNPSLQYSQIFKTPSDSIAAQAESVCAPALGQSFAAGLTEYSNKNNNTLVGYGRTQDGFLNLPVVKNFTSTDGQPLTVKVSTPIKIYQGQADTTVPLIATNKLVTEAKLAGTNINFITNETWTHGSAYSLNISNIVTDVNTLFTQ”, the protein production entry was “failed”.
